Data on 20 sequences can be found in the DeepSol protein solubility set.

A short description of this data set: soluble on expression in E. coli; label from the status in PepcDB or PDB records.
In the case of “MRTRIDYLADKYCFTERNESPRLRRQWQDVLEECRQTEAGPEERLRIALLNVDYVTSFELPFRLLLTRTPQLIAALREEWGISQKNVVFNDKRFGCVYSLKASLSGVPDTYRYHLSHRIRRVVGNENTSLPYQQVAREVKAPRERLKYALEAGLLVTALDGLFRFGSQRIAADVLRLRKAGMPVVTTTVEVHDNLTGTTRKVPAYHL”, the “soluble on expression in E. coli” value is “not soluble”.
Take “MAKYNEKKEKKRIAKERIDILFSLAERVFPYSPELAKRYVELALLVQQKAKVKIPRKWKRRYCKKCHAFLVPGINARVRLRQKRMPHIVVKCLECGHIMRYPYIKEIKKRRKEKMEYGGLVPR”: the “soluble on expression in E. coli” value is reported as “soluble”.
In the case of “GSHMFYAVRRGRKTGVFLTWNECRAQVDRFPAARFKKFATEDEAWAFVRKSAS” it was “soluble”.
To “MGSDKIHHHHHHMSRVACAYIIRKATGEHECCETLEEHVQRSLEVWLGRLKKCYSSAVNRIIYSQGSQTLASVLGDPVAVAIVLHDIGKAVPAYQKKRIMRGRVQYRHELVSGALSLLAIEKAADMAGIGRNDRGLYVFEVPLAVMMHHESISMGVLAGELGERFVTLSVASLMLEDYYDGELWGLERLARTVKNMGAVGDAVVDVLKILSGSPPSRKEVLIALGRLKAYSLSGDTLSRLSARARVAGILHPLVVADSIAANEGRKRCNGDGGTWIVKRALGRDSQEPAEPCLS” belongs “not soluble”; to “MDRLGSFSNDPSDKPPCRGCSSYLMEPYIKCAECGPPPFFLCLQCFTRGFEYKKHQSDHTYEIMTSDFPVLDPSWTAQEEMALLEAVMDCGFGNWQDVANQMCTKTKEECEKHYMKYFINNPLFASTLLNLKQAEEAKTADTAIPFHSTDDPPRPTFDSLLSRDMAGYMPARADFIEEFDNYAEWDLRDIDFVEDDSDILHALKMAVVDIYHSRLKERQRRKKIIRDHGLINLRKFQLMERRYPKEVQDLYETMRRFARIVGPVEHDKFIESHACRWFLSLEQYLCVYIYINRRDNGVFYVKFYK”, “soluble”; to “MSLVEELLKITLKSDELHRRLGGGIPAGTIMLIEGDRGTGKSILSQRLLYGFLMNGYTSSYVSSQYTTVEYIKQMMSISYDVIPFLIRKKLVFVSLYPLLSGVSEERKFLSRLLGEPRLWDQDVVIIDSFSSVLSREQDVRAVRNFLMYIKKLSSLGKVIILTANPEELSRDVMFLLEEASTLLIRLNVRVFGGDLKNSATIVKYNNAKGAFQKIIPFRVEPKVGLVVEIAAVVEGHHHHHH”, “soluble”.
To “FVNKDQIAKDVKQFYDQALQQAVVDDDANNAKAVVKTFHETLDCCGSSTLTALTTSVLKNNLCPSGSNIISNLFKEDCHQKIDDLFSGKH” belongs “soluble”.
With “MGSDKIHHHHHHMENYLGRLWTKAQLSEQLRKIAISLPSFIKKGSDYICTRCSSSVAKNCQLPTGNYYCRECIVFGRVTSNENLYYFPQKTFSKTNSLKWKGELTPYQNEVSEELLKGISSKENLLVHAVTGAGKTEMIYHSVAKVIDTGGSVCIASPRIDVCLELYKRLSNDFRCAITLMHGESPSYQRSPLTIATTHQLLKFYHAFDLLIVDEVDAFPYVDNPILYQGVKQALKENGTSIFLTATSTTELERKVARKELKKLHLARRFHANPLVIPEMVWVSGIQKSLQTQKLPPKLYQLINKQRQTRYPLLLFFPHISEGQVFTEILRQAFPMEKIGFVSSKSTSRLKLVQDFRDNKLSILVSTTILERGVTFPSVDVFVIQANHHLFTKSSLVQISGRVGRALERPEGLLYFLHDGKSKSMHQAIKEIKNMNHIGGF”, the “soluble on expression in E. coli” value is recorded as “not soluble”.
In the case of “MGHHHHHHGGHMSLTTSTPSNRILVVMSSAAQIPLQDGKNHNTGYFLNEFGVPAKRLTDAGYELVIATPRGSVPGMDHNSDHDMFFKNKEEHNEIKAFVGDVLSNTTIQTTEAVAAEGTQAYAALFLPGGHAPMADLMADPALGEILRQFHAAAKPTALICHAPTALLAAQADPVAFQKGMEAGEQPSAQDFTYQGYRVTVFANDEEEATEKTFEAPMLYYPADALTQGGAQVENGEAMKPNVVRDRELLTGQNPFSDEPFVAQLLEMLGEGGS” it was “soluble”.
Turning to “MVRVDVEERFNRIARNTVEIVTEEELKGLLASGARIKGYIGYEPSGVAHIGWLVWMYKVKDLVEAGVDFSVLEATWHAYINDKLGGDMDLIRAAARIVRRVMEAAGVPVERVRFVDAEELASDKDYWGLVIRVAKRASLARVRRALTIMGRRAEEAEVDASKLIYPLMQVSDIFYMDLDIALGGMDQRKAHMLARDVAEKLGRKKPVAIHTPIISSLQGPGRMEASQGEIDDVLAEVKMSKSKPETAVFVVDSDDDIRRKIRKAYCPAKQVQGNPVLEIARYILFARDGFTLRVDRPAKYGGPVEYTSYEELERDYTDGRLHPLDLKNAVAESLIEVVRPIRGAVLGDPAMKRALEAIEGKVTR”, the “soluble on expression in E. coli” value is “soluble”.
In the case of “AMKNWKTSAESILTTGPVVPVIVVKKLEHAVPMAKALVAGGVRVLNVTLRTECAVDAIRAIAKEVPEAIVGAGTVLNPQQLAEVTEAGAQFAISPGLTEPLLKAATEGTIPLIPGISTVSELMLGMDYGLKEFKFFPAEANGGVKALQAIAGPFSQVRFCPTGGISPANYRDYLALKSVLCIGGSWLVPADALEAGDYDRITKLAREAVEGAKL” it was “soluble”; in that of “MSLKVVSVDTLCCDAGWRNYHFVKLTTDEGIVGWSEFDEGFGSPGVTAVIEQLGKRLVGASVMEHERFFAEAYCLTRPATGGVVSEGIGAIENALLDAKAKTLNVPCYELLGGKLRDRVPVYWSHCPTWRINHPKFFGPPVTDLDGVKRTAEEARERQFRAIKTNIFIHDDGPLHAWRPGFAVPFQPALNVDRKVLRNLRAHLEALRDGAGPDVEILLDLNFNAKPEGYLKILRELADFDLFWVEIDSYSPQGLAYVRNHSPHPISSCETLFGIREFKPFFDANAVDVAIVDTIWNGVWQSMKIAAFADAHDINVAPHNFYGHLCTMINANFAAAVPNLRIMETDIDRLAWEDELFTHAPEYQNGELIIPDRPGWGTDPVEEAILAHPPKVMGGLLQYKRSEGHHHHHH”, “soluble”.
In the case of “MKFLQFALLFFIICITTTDASKKTQRVLKKVGKRFSLSEFGVVQRLDYMWRTAETVEAARNHSAELVARLLLSQSSADNLKFQESADILYSLMDNNFEGKICGGDETLNFYQMSDYWKRQRKTYRRNEKENVTWRAYPIEDNAYNKFMVRFNSKSTWGYSATMIYVVHMRLLGEKKYSNYTLTKIEEVGACTEYGGVSLENTNLYELDPERLETRDKLLKHLQELFYTEQKVSEIPFDWIYSSASEKELKIEVCHGTELKKMAKKDFIKWWEWFQMMCRPVKGENEHTLVQITGGVYDRLVFRVTMLVHVGTEDIHPTEEFSFKLQFKYDVHGDKEWLINKFEVMCPTIAVPEADLMKKHALVYREIIGSRLQLMVNNPELWYNFAEAIVALTSPTYEVENCAGKGEEMEKGTDMYQLKHTFWKLNKDTHGRMEGYTLGKKNDISETGEKMWARIRIIWTPGNDKLVYDSRWTFYLEWNSDLQAFTIYKMILQCPTVARIGEIKYYSSLNKPTTNTTSQ” it was “not soluble”; in that of “MSMPATLTKTTKLATSLIDEYALLGWRAMLTEVNLSPKPGLVDRINCGAHKDMALEDFHRSALAIQGWLPRFIEFGACSAEMAPEAVLHGLRPIGMACEGDMFRATAGVNTHKGSIFSLGLLCAAIGRLLQLNQLLTPTTVCSTAASFCRGLTDRELRTNNSQLTAGQRLYQQLGLTGARGEAEAGYPLVINHALPHYLTLLDQGLDPELALLDTLLLLMAINGDTNVASRGGEGGLRWLQREAQTLLQKGGIRTPADLDYLRQFDRECIERNLSPGGSADLLILTWFLAQI”, “soluble”; in that of “MSLSSKRDIEANTDLNSITYIPTFPEPFERDNSHTTASFVSIQIRLLVASVTEENFLDTEHQIYYLLQRGSFSVYISYWKLLIQLFVNEFEAQQQKRDLNLPFRFDFSNLVHRLLYNLAQELITRTPDTIEKVKELALPLSGKYPIRPLFLSFLNKDNESDSAIIEALNPEVHPIFTTLKDLHRTNMSVSNITQNLFAVENKPNFLTMLSEFLKPLQGETLNDWIALILSEILAPGSQTSNQPSQPWIVQVPNVDVREVIEATEMGTKVNGIIKSLGTNNVNWNRVFNLMSTKFFLNKPVNATLSSLNYLFCILNSGPLVDQFFACDWSLYFKLRLSFLMYQWNYNSECLDLSSLPNIKKINKSIPLTKKSQLSLISVGKLNIELFLSRDEISKNPLFSSFHASFSEAYNNVPEYLAAVLISESKYFSLLVDNKSIIDELLISLVIKTYENNVIAFKELLKLVSKQKVIEVSRGIIASQNAQTINLVQALHDLGILDEVFEKLPIRDSLKLSPTAMHLGYLKFSEYIERNITLKTFVPTLDFIEAQTNIDELDEGHHHHHH”, “not soluble”.
Take “MADLERYLKRARGGRVVRTGFLDPEDQARLEEMARREGIRVAFFGGFPLAERKVAVLYPEEVPSVSDPVEVVLLDRPPPADLGEVLGEVEEVEEGVLAALLPEGRKALEAQGYRLLPPPEGALRPPRERVRTLVVPSLRVDAVGAKGFGVSRSYFAQGVKAGKVRLKGRPASPKDELAPGDLLFAEGLGTLRLLEVVGKTVRGNYKIKVEVER”: the “soluble on expression in E. coli” value is given as “soluble”.
With “MAGRLREMRCELSFLKNADGSACFSQGATCIWASCSGPGDVHASKASDEAMTLDISYRANCGDNKFNVLNNIIHSTLSNAINLELFPHTTISVTVHGIQDDGSMGAVAINGACFALLDNGMPFETVFCGVLIVRVKDELIIDPTAKQEAASTGRVLFSVCKGSDGHPEVCAMDAIGHWDFIQLEAAWSLAQPSASAIFDFYKTVMKRKLSVDEQLEHHHHHH”, the “soluble on expression in E. coli” value is reported as “soluble”.
In the case of “MGSDKIHHHHHHDDHQGIIPLPPVENAFQEKYPDAKNPVFEIEGNYYVVDFNNGGSETTAWFTDQGIWMMEKIDISFAQLPAAVSTAFKQSFYSNWTVDDTYAINRLNMGIVYKIEAEQSNSEVDLYYSQYGNLIKAVDDEINNDAPIVIPKEVSNLMEITFANAELLDIQQNSLGYELDMIDNQIYKVAQLNKDYRWQSTTWAMSEQEVPQIVMQGFESSAYASDKVQSIYTLLNANGTFYLFKVSHNGQDKTITFDVFGNIV” it was “not soluble”.
To “MSLKIAILYREEREKEGEFLKEKISKEHEVIEFGEANAPGRVTADLIVVVGGDGTVLKAAKKAADGTPMVGFKAGRLGFLTSYTLDEIDRFLEDLRNWNFREETRWFIQIESELGNHLALNDVTLERDLSGKMVEIEVEVEHHSSMWFFADGVVISTPTGSTAYSLSIGGPIIFPECEVLEISPIAPQFFLTRSVVIPSNFKVVVESQRDINMLVDGVLTGKTKRIEVKKSRRYVRILRPPEYDYVTVIRDKLGYGRRIEEGGSHHHHHH” belongs “soluble”.
To “MSEKEIWEKVLEIAQEKLSAVSYSTFLKDTELYTIKDGEAIVLSSIPFNANWLNQQYAEIIQAILFDVVGYEVKPHFITTEELANYSNNETATPKETTKPSTETTEDNHVLGREQFNAHNTFDTFVIGPGNRFPHAASLAVAEAPAKAYNPLFIYGGVGLGKTHLMHAIGHHVLDNNPDAKVIYTSSEKFTNEFIKSIRDNEGEAFRERYRNIDVLLIDDIQFIQNKVQTQEEFFYTFNELHQNNKQIVISSDRPPKEIAQLEDRLRSRFEWGLIVDITPPDYETRMAILQKKIEEEKLDIPPEALNYIANQIQSNIRELEGALTRLLAYSQLLGKPITTELTAEALKDIIQAPKSKKITIQDIQKIVGQYYNVRIEDFSAKKRTKSIAYPRQIAMYLSRELTDFSLPKIGEEFGGRDHTTVIHAHEKISKDLKEDPIFKQEVENLEKEIRNVLEHHHHHH” belongs “soluble”.
